This passage reports koff, kon and Kd results from patent US20210355194A1 (TWIST BIOSCIENCE, published 2021).

The target in experiment [1] is T1, ACE2 (human, UniProt Q9BYF1 18-740).
The target in experiment [2] is T1, ACE2. This is another data set of the same source.
Experiment [3] deals with T2, Acro SARS-CoV-2 (COVID-19) S1 protein (SARS-CoV-2, UniProt P0DTC2 16-685).
T2 construct: also called SARS-CoV-2 S1
The experiment is described as follows: SPR.

Substitutions are numbered along the chain they refer to. Where two headings read alike, the source gives them in different places.

T1 sequence (Q9BYF1 18-740 limits assumed): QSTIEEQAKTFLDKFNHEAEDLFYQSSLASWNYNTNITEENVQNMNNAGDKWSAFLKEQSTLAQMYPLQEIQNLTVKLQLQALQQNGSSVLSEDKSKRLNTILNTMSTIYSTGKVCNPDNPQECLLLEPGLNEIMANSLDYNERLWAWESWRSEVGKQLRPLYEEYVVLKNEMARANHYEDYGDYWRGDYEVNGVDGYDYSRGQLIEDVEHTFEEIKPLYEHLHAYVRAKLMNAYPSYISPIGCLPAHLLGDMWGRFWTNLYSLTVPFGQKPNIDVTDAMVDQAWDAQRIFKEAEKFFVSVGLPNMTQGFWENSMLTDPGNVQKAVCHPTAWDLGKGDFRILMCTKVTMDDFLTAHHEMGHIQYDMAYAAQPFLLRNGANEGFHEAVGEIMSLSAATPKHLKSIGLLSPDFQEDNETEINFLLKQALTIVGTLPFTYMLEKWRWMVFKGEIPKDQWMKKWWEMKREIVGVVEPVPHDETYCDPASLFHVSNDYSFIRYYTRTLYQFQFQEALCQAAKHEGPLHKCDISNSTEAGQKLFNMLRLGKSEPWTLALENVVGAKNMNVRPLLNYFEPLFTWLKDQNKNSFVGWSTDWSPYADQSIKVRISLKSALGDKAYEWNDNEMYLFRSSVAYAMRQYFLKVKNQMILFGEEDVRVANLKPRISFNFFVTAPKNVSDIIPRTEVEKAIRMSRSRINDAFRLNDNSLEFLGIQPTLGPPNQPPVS

B1: ACE2 variant antibody 4-64 (VHH)
VHH: EVQLVESGGGLVQPGGSLRLSCAASGRTFGDYIMGWFRQAPGKERESVAAINWSAGYTAYADSVKGRFTISADNSKNTAYLQMNSLKPEDTAVYYCATASPNTGWHFDHWGQGTLVTVSS
In general, koff refers to a measure of how fast the partners let go of each other. A high value points to a short-lived complex. A word on the kon: it is the second-order rate constant of association. Broadly, the Kd is the equilibrium constant for the complex coming apart. A lower Kd goes with tighter binding. In the experiment with ACE2 [1], B1 displayed a koff of 0.0007 s⁻¹ and a kon of 2.9e+06 M⁻¹ s⁻¹. In the experiment with ACE2 [2], this molecule showed a Kd of 0.2 nM, an off-rate constant (koff) of 0.0007 s⁻¹ and a kon of 2.9e+06 M⁻¹ s⁻¹.

B2: ACE2 variant antibody 4-41 (VHH)
VHH: EVQLVESGGGLVQPGGSLRLSCAASGRTFGDYIMGWFRQAPGKERESVAAINWSGGTTPYADSVKGRFTISADNSKNTAYLQMNSLKPEDTAVYYCATDPPLFCCHVDLWGQGTLVTVSS
Consider B2, for which, in the experiment with ACE2 [1], the koff worked out at 0.001 s⁻¹ and the kon came to 180000 M⁻¹ s⁻¹. Further, in the experiment with ACE2 [2], the Kd is 5.6 nM, the koff worked out at 0.001 s⁻¹ and the kon is 180000 M⁻¹ s⁻¹.

B3: ACE2 variant antibody 4-49 (VHH)
VHH: B1 VHH with T98R
Turning to B3, in the experiment with ACE2 [1], the koff is 0.00098 s⁻¹ and the kon came to 2.91e+06 M⁻¹ s⁻¹. In the experiment with ACE2 [2], this molecule gave a Kd of 0.3 nM, a koff of 0.00098 s⁻¹ and a kon of 2.91e+06 M⁻¹ s⁻¹.

B4: ACE2 variant antibody 4-95 (VHH)
VHH: B1 VHH with S47I, S100P, N102L, T103F, G104C
In the experiment with ACE2 [1], B4 gave a koff of 0.00772 s⁻¹ and a kon of 415000 M⁻¹ s⁻¹. In the experiment with ACE2 [2], this molecule had a Kd of 18.6 nM, a koff of 0.00772 s⁻¹ and a kon of 415000 M⁻¹ s⁻¹.

B5: ACE2 variant antibody 4-61 (VHH)
VHH: B1 VHH with S47I, G56D, A59P, S100P
For B5, in the experiment with ACE2 [1], the koff came out at 0.00286 s⁻¹ and the kon came to 348000 M⁻¹ s⁻¹. Moreover, in the experiment with ACE2 [2], the Kd was found to be 8.2 nM, the koff worked out at 0.00286 s⁻¹ and the kon came out at 348000 M⁻¹ s⁻¹.

B6: ACE2 variant antibody 4-33 (VHH)
VHH: EVQLVESGGGLVQPGGSLRLSCAASGFTFSRHDMGWFRQAPGKEREFVAGINWESGSTNYADSVKGRFTISADNSKNTAYLQMNSLKPEDTAVYYCAADRGVYGGRWYRTSQYTWGQGTLVTVSS
With B6, in the experiment with ACE2 [1], the koff was 0.000552 s⁻¹ and the kon was 229000 M⁻¹ s⁻¹. In the experiment with ACE2 [2], this molecule had a Kd of 2.4 nM, a koff of 0.000552 s⁻¹ and a kon of 229000 M⁻¹ s⁻¹.

B7: ACE2 variant antibody 4-62 (VHH)
VHH: EVQLVESGGGLVQPGGSLRLSCAASGRTFSDDTMGWFRQAPGKEREFVAAINWSGGSTDYADSVKGRFTISADNSKNTAYLQMNSLKPEDTAVYYCATDPPLFWGQGTLVTVSS
In the experiment with ACE2 [1], B7 returned a koff of 0.00365 s⁻¹ and a kon of 245000 M⁻¹ s⁻¹. In the experiment with ACE2 [2], this molecule returned a Kd of 14.9 nM, a koff of 0.00365 s⁻¹ and a kon of 245000 M⁻¹ s⁻¹.

B8: ACE2 variant antibody 4-74 (VHH)
VHH: B7 VHH with R27L, I51V, N52S, S57N, D59Y
In the experiment with ACE2 [1], B8 showed a koff of 0.00285 s⁻¹ and a kon of 248000 M⁻¹ s⁻¹. In the experiment with ACE2 [2], the Kd came to 11.5 nM, the koff came to 0.00285 s⁻¹ and the kon came to 248000 M⁻¹ s⁻¹.

B9: ACE2 variant antibody 4-76 (VHH)
VHH: B7 VHH with S30G, D32Y, T33A, F47L, A50P, D59Y
Turning to B9, in the experiment with ACE2 [1], the koff was 0.00428 s⁻¹ and the kon was 135000 M⁻¹ s⁻¹. In the experiment with ACE2 [2], this molecule came in with a Kd of 31.8 nM, a koff of 0.00428 s⁻¹ and a kon of 135000 M⁻¹ s⁻¹.

B10: ACE2 variant antibody 4-69 (VHH)
VHH: B7 VHH with T33A, S57T, D59R
In the experiment with ACE2 [1], B10 displayed a koff of 0.00256 s⁻¹ and a kon of 99400 M⁻¹ s⁻¹. In the experiment with ACE2 [2], the Kd came out at 25.8 nM, the koff turned out to be 0.00256 s⁻¹ and the kon worked out at 99400 M⁻¹ s⁻¹.

B11: ACE2 variant antibody 4-75 (VHH)
VHH: B7 VHH with S30G, S54T, S57Y, D59P
Consider B11, for which, in the experiment with ACE2 [1], the koff turned out to be 0.00478 s⁻¹ and the kon came out at 299000 M⁻¹ s⁻¹. In the experiment with ACE2 [2], this molecule returned a Kd of 16 nM, a koff of 0.00478 s⁻¹ and a kon of 299000 M⁻¹ s⁻¹.

B12: ACE2 variant antibody 4-63 (VHH)
VHH: B7 VHH with D32Y, S57Y, D59Y
In the experiment with ACE2 [1], B12 returned a dissociation rate constant (koff) of 0.00105 s⁻¹ and a kon of 610000 M⁻¹ s⁻¹. For the same molecule, in the experiment with ACE2 [2], the affinity, expressed as Kd, was 1.7 nM; the koff was 0.00105 s⁻¹; the kon is 610000 M⁻¹ s⁻¹.

B13: ACE2 variant antibody 4-67 (VHH)
VHH: B7 VHH with G56D, D59Y
In the experiment with ACE2 [1], B13 had a koff of 0.00214 s⁻¹ and a kon of 93900 M⁻¹ s⁻¹. In the experiment with ACE2 [2], this molecule registered a Kd of 22.8 nM, a koff of 0.00214 s⁻¹ and a kon of 93900 M⁻¹ s⁻¹.

B14: variant 6-112 (Fc fusion)
VHH: EVQLVESGGGLVQPGGSLRLSCAASGGTFSAYHMGWFRQAPGKERELVTIIDNGGPTSYADSVKGRFTISADNSKNTAYLQMNSLKPEDTAVYYCTALLYYFDNSGYNFDPFDIWGQGTLVTGSS
The molecule B14 registered a Kd in experiment [3] of 3230 nM.

B15: variant 6-108 (Fc fusion)
VHH: EVQLVESGGGLVQPGGSLRLSCAASGGTFGSYGMGWFRQAPGKEREFVAAIRWSGGITYYADSVKGRFTISADNSKNTAYLQMNSLKPEDTAVYYCARERYWNPLPYYYYGMDVWGQGTLVTVSS
With B15, the Kd in experiment [3] was determined as 69.4 nM. Compared with the last molecule, the Kd is about 47-fold lower.

B16: ACE2 variant antibody 4-89 (VHH)
VHH: EVQLVESGGGLVQPGGSLRLSCAASGFAFGDNWIGWFRQAPGKEREWVASISSGGTTAYADNVKGRFTIIADNSKNTAYLQMNSLKPEDTAVYYCAHRGGWLRPWGYWGQGTLVTVSS
In the case of B16, in the experiment with ACE2 [1], the koff was 0.000611 s⁻¹ and the kon worked out at 2.04e+06 M⁻¹ s⁻¹. Besides, in the experiment with ACE2 [2], binding was put at a Kd of 0.3 nM, the koff was 0.000611 s⁻¹ and the kon worked out at 2.04e+06 M⁻¹ s⁻¹.

B17: variant 6-102 (Fc fusion)
VHH: EVQLVESGGGLVQPGGSLRLSCAASGSSFSAYAMGWFRQAPGKEREFVSAIDSEGTTTYADSVKGRFTISADNSKNTAYLQMNSLKPEDTAVYYCAGDYNFWSGFDHWGQGTLVTVSS
B17: binding in experiment [3] was put at a Kd of 45.7 nM.

B18: variant 6-97 (Fc fusion)
VHH: EVQLVESGGGLVQPGGSLRLSCAASGFTFSSLAMGWFRQAPGKEREFVAAITWSGDITNYADSVKGRFTITADNSKNTAYLQMNSLKPEDTAVYYCLRLSSSGFDHWGQGTLVTVSS
As to B18, in experiment [3], binding was characterised by a dissociation constant (Kd) of 4070 nM. This Kd is about 89-fold higher than that of the molecule before.

B19: variant 6-99 (Fc fusion)
VHH: EVQLVESGGGLVQPGGSLRLSCAASGIPFRSRTMGWFRQAPGKEREFVAGISRSGASTAYADSVKGRFTISADNSKNTAYLQMNSLKPEDTAVYYCTHANDYGDYWGQGTLVTVSS
Consider B19, for which, in experiment [3], binding was characterised by a dissociation constant (Kd) of 51.6 nM. This Kd is about 79-fold lower than that of the molecule before.

B20: variant 6-103 (Fc fusion)
VHH: EVQLVESGGGLVQPGGSLRLSCAASGRTSSPIAMGWFRQAPGKEREPVAVRWSDDYTYYADSVKGRFTISADNSKNTAYLQMNSLKPEDTAVYYCAKKLGGYYAFDIWGQGTLVTVSS
In experiment [3], B20 returned a Kd of 23.6 nM.
